T1: human CD20 antigen (human, UniProt P11836 1-297)
T1 construct: whole, on cells; also called CD20/CHO cells; CD20 on Raji cells
T1 sequence (looked up): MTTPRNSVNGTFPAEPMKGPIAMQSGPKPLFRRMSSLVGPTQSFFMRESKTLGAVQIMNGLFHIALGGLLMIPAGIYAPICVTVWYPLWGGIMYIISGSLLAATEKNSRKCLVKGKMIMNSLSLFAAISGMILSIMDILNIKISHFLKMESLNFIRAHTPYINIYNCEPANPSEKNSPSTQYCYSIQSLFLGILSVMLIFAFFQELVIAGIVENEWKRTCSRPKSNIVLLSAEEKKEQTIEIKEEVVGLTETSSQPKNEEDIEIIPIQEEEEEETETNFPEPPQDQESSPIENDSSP

B1: murine anti-CD20 monoclonal antibody 1K1228 (antibody, V domains shown)
VH: QVQLQQPGAELVKPGASVKVSCKASGFTFTSYNLHWVKQTPGQGLVWIGAIYPGNGDTSYNQKFRGKATLTADISSSTAYMQLSSLTSEDSAVYYCARYYYGYDAMDYWGQGTSVTVSS
VL: EIILTQSPTTMAASPGEKITITCSASSSISSYYLRWYQQKPGFSPKVLIYRTSNLASGVPARFSGSGSGTSYSLTIGTMEAEDVATYYCQQGNTVPLTFGSGTKLEIK
notes: Mouse monoclonal antibody from a hybridoma, purified on protein G
B2: murine anti-CD20 monoclonal antibody 1K1402 (antibody, V domains shown)
VH: QVQLQQPGAELVKPGASVKMSCKASGFTFTSYNMHWVKQTPGQGLEWIGGIYPGNGDTSYNQKFKGKATLTADKSSSTAYMQLSSLTSEDSAVYYCARFYYYGSMGAMDYWGQGTSVTVSS
VL: QIVLSQSPAILSASPGEKVTMTCRASSSVSYMHWYQQKPGSSPKPWIYATSNLASGVPARFSGSGSGTSYSLTITRVEAEDAATYYCQQWTFNPPTFGAGTKLELK
notes: Mouse monoclonal antibody from a hybridoma
B3: chimeric anti-CD20 monoclonal antibody c1K0924 (antibody, V domains shown)
VH: QVQLQQPGAELVKPGASVKMSCKASGYTFTSYNIHWVKQTPGQGLEWIGAIYPGNGDTSYNQKFKGKATLTSDKSSSTAYMQLSSLTSEDSAVYYCARMSTMITGFDYWGQGTTLTVSS
VL: QIVLSQSPAILSASPGEKVTMTCRASSSVSYMHWYQQRPGSSPKPWIYATSNLASGVPARFSGSGSGTSYYFTISRVEAEDAATYYCQQWNSNPPTHGGGTKLEIK
notes: Murine variable regions fused to human immunoglobulin H chain and L chain (kappa) constant regions of vector pNOW-Ab
B4: chimeric anti-CD20 monoclonal antibody c1K1228 (antibody, V domains shown)
VH: QVQLQQPGAELVKPGASVKVSCKASGFTFTSYNLHWVKQTPGQGLVWIGAIYPGNGDTSYNQKFRGKATLTADISSSTAYMQLSSLTSEDSAVYYCARYYYGYDAMDYWGQGTSVTVSS
VL: EIILTQSPTTMAASPGEKITITCSASSSISSYYLRWYQQKPGFSPKVLIYRTSNLASGVPARFSGSGSGTSYSLTIGTMEAEDVATYYCQQGNTVPLTFGSGTKLEIK
notes: as for B3
B5: chimeric anti-CD20 monoclonal antibody c1K1402 (antibody, V domains shown)
VH: QVQLQQPGAELVKPGASVKMSCKASGFTFTSYNMHWVKQTPGQGLEWIGGIYPGNGDTSYNQKFKGKATLTADKSSSTAYMQLSSLTSEDSAVYYCARFYYYGSMGAMDYWGQGTSVTVSS
VL: QIVLSQSPAILSASPGEKVTMTCRASSSVSYMHWYQQKPGSSPKPWIYATSNLASGVPARFSGSGSGTSYSLTITRVEAEDAATYYCQQWTFNPPTFGAGTKLELK
notes: as for B3
B6: chimeric anti-CD20 monoclonal antibody c1K1422 (antibody, V domains shown)
VH: QVQLQQPGAELVKPGASVKMSCRASGYTFTNYNMHWIKQTPGQGLEWIGAIYPGSGDTSYNRKFKGKATLTADTSSSTAYMQFSSLTSADSAVYYCARFTYYYGGTYGAMDYWGQGTSVTVSL
VL: QIVLTQSPPIMSASLGEEITLTCSASSRVSYMLWYQQKSGTSPKLLIYSTSNLASGVPSRFSGSGSGTFYSLTISSVEAEDAADYYCHQWTSNPCTFGGGTKLEIK
notes: as for B3
B7: chimeric anti-CD20 monoclonal antibody c1K1712 (antibody, V domains shown)
VH: QVQLQQPGAELVKPGASVKMSCKASGFTFTSYNLHWVKQTPGQGLEWIGAIYPGSGDTSYNQQFKGKATLTADKSSNTAYMQLNSLTSEDSAVYCCARSAMISTGNWYFDYWGQGTTLTVSS
VL: QIVLSQSPAILSASPGEKVTMTCRASSSVSYMDWYQQKPGSSPKPWIYATSNLASGVPARFSGSGSGTSYSLTISRVEAEDTATYYCQQWTFNPPTFGSGTKLEIK
notes: as for B3
B8: chimeric anti-CD20 monoclonal antibody c1K1736 (antibody, V domains shown)
VH: QVQLQQPGAELVKPGASVKMSCKASGYTFTTYNLHWVKQTPGQGLEWIGGIYPGNGDTSYNQKFKVKATLTADKSSNTAYMQLSSLTSEDSAVYYCARWIYYGNYEGTLDYWGQGTSVTVSS
VL: QIVLSQSPAILSSSPGEKVTMTCRASSSVSYMLWYQQKPGSSPEPWIYATSNLASGVPARFSGGGSGTSYSLTISRVEAEDAATYYCQQWTFNPPTFGGGTKLEIK
notes: as for B3
B9: chimeric anti-CD20 monoclonal antibody c1K1782 (antibody, V domains shown)
VH: QVQLQQSGAELAKPGASVKMSCKASGYTFTSYWMHWVKQRPGQGLEWIGYITPSTGYTDYNKKFKDKATLTADRSSSTAYMHLSSLTSEDSAVYYCARSGPYFDVWGAGTTVTVSS
VL: DILLTQSPAILFVSPGERVSLSCRASQNIGTSIHWYQQRTNGSPRLLIKYASESFSGIPSRFSGSGSGTDFTLSINSVESEDIADYYCQQSNSWPFTFGSGTKLEIK
notes: as for B3
B10: chimeric anti-CD20 monoclonal antibody c1K1791 (antibody, V domains shown)
VH: QIQLVQSGPELKKPGETVKISCKASGYTFTNFGVNWVKQAPGKGLKWMGWINTYTGEPSYADDFKGRFAFSLEASANTAYLQINNLKNDDMSTYFCTRRTNYYGTSYYYAMDYWGQGTSVTVSS
VL: STVMTQTPKFLLVSAGDRVTITCKASQSVSNDVAWYQQKPGQSPKVLIYFASNRYTGVPDRFTGSGYGTDFTFTINTVQAEDLAVYFCQQDYSSPLTFGAGTKLELK
notes: as for B3
B11: Rituximab (c2B8) (antibody, V domains shown)
VH: QVQLQQPGAELVKPGASVKMSCKASGYTFTSYNMHWVKQTPGRGLEWIGAIYPGNGDTSYNQKFKGKATLTADKSSSTAYMQLSSLTSEDSAVYYCARSTYYGGDWYFNVWGAGTTVTVSA
VL: QIVLSQSPAILSASPGEKVTMTCRASSSVSYIHWFQQKPGSSPKPWIYATSNLASGVPVRFSGSGSGTSYSLTISRVEAEDAATYYCQQWTSNPPTFGGGTKLEIK

What was measured:
[1] = biological target: T1, human CD20 antigen; assay: Raji cell-ELISA, antibody at 10 ng/ml
From the text: (§1) Several murine anti-CD20 monoclonal antibodies and 2B8 were reacted by using 96-well plates to which the SB cells, Raji cells, CD20/CHO cells and CD20 CHO parent cell line were adhered.

[2] = biological target: T1, human CD20 antigen; assay: SB cell-ELISA, antibody at 32 ng/ml
From the text: as §1

[3] = biological target: T1, human CD20 antigen; assay: Raji cell-ELISA, antibody at 32 ng/ml
From the text: as §1

[4] = biological target: T1, human CD20 antigen; assay: SB cell-ELISA, antibody at 10 ng/ml
From the text: as §1

[5] = biological target: T1, human CD20 antigen; assay: Raji cell-ELISA, antibody at 320 ng/ml
From the text: as §1

[6] = biological target: T1, human CD20 antigen; assay: CD20/CHO cell-ELISA, antibody at 100 ng/ml
From the text: as §1

[7] = biological target: T1, human CD20 antigen; assay: Raji cell-ELISA, antibody at 1000 ng/ml
From the text: as §1

[8] = biological target: T1, human CD20 antigen; assay: CD20/CHO cell-ELISA, antibody at 10 ng/ml
From the text: as §1

[9] = biological target: T1, human CD20 antigen; assay: SB cell-ELISA, antibody at 100 ng/ml
From the text: as §1

[10] = biological target: T1, human CD20 antigen; assay: CD20/CHO cell-ELISA, antibody at 1000 ng/ml
From the text: as §1

[11] = biological target: T1, human CD20 antigen; assay: CD20/CHO cell-ELISA, antibody at 32 ng/ml
From the text: as §1

[12] = biological target: T1, human CD20 antigen; assay: Raji cell-ELISA, antibody at 100 ng/ml
From the text: as §1

[13] = biological target: T1, human CD20 antigen; assay: SB cell-ELISA, antibody at 1000 ng/ml
From the text: as §1

[14] = biological target: T1, human CD20 antigen; assay: SB cell-ELISA, antibody at 320 ng/ml
From the text: as §1

[15] = biological target: T1, human CD20 antigen; assay: CD20/CHO cell-ELISA, antibody at 3 ng/ml
From the text: as §1

[16] = biological target: T1, human CD20 antigen; assay: CD20/CHO cell-ELISA, antibody at 320 ng/ml
From the text: as §1

[17] = biological target: T1, human CD20 antigen; assay: CD20/CHO cell-ELISA, antibody at 1 ng/ml
From the text: (§2) The prepared 8 kinds of chimeric anti-CD20 monoclonal antibodies were examined for reactivity to the human CD20 antigen by the CD20/CHO cell-ELISA. Rituximab (c2B8) was used as a positive control. The values measured in the cell-ELISA (A492) reflect intensity of the binding property.

[18] = biological target: T1, human CD20 antigen; assay: CD20/CHO cell-ELISA, antibody at 10 ng/ml; remark: listed apart in the source
From the text: as §2

[19] = biological target: T1, human CD20 antigen; assay: CD20/CHO cell-ELISA, antibody at 3 ng/ml; remark: listed apart in the source
From the text: as §2

[20] = biological target: T1, human CD20 antigen; assay: CD20/CHO cell-ELISA, antibody at 100 ng/ml; remark: listed apart in the source
From the text: as §2

[21] = biological target: T1, human CD20 antigen; assay: CD20/CHO cell-ELISA, antibody at 32 ng/ml; remark: listed apart in the source
From the text: as §2

| Binder | A492 [17] | A492 [18] | A492 [19] | A492 [20] | A492 [21] | also measured |
| --- | --- | --- | --- | --- | --- | --- |
| B1 |  |  |  |  |  | A492 [1]: 0.148 A492; A492 [2]: 0.192 A492; A492 [3]: 0.326 A492; A492 [4]: 0.082 A492; A492 [5]: 1.17 A492; A492 [6]: 2.09 A492; A492 [7]: 1.68 A492; A492 [8]: 0.572 A492; A492 [9]: 0.452 A492; A492 [10]: 3.06 A492; A492 [11]: 1.27 A492; A492 [12]: 0.678 A492; A492 [13]: 1.26 A492; A492 [14]: 0.931 A492; A492 [15]: 0.265 A492; A492 [16]: 2.7 A492 |
| B2 |  |  |  |  |  | A492 [1]: 0.061 A492; A492 [2]: 0.095 A492; A492 [3]: 0.102 A492; A492 [4]: 0.066 A492; A492 [5]: 0.525 A492; A492 [6]: 1.49 A492; A492 [7]: 1.23 A492; A492 [8]: 0.389 A492; A492 [9]: 0.152 A492; A492 [10]: 1.88 A492; A492 [11]: 0.824 A492; A492 [12]: 0.214 A492; A492 [13]: 0.763 A492; A492 [14]: 0.4 A492; A492 [15]: 0.174 A492; A492 [16]: 1.57 A492 |
| B3 | 0.094 A492 | 0.391 A492 | 0.186 A492 | 1.42 A492 | 0.724 A492 |  |
| B4 | 0.12 A492 | 0.701 A492 | 0.289 A492 | 2.23 A492 | 1.58 A492 |  |
| B5 | 0.116 A492 | 0.737 A492 | 0.349 A492 | 2.45 A492 | 1.62 A492 |  |
| B6 | 0.077 A492 | 0.357 A492 | 0.151 A492 | 1.92 A492 | 0.912 A492 |  |
| B7 | 0.145 A492 | 0.793 A492 | 0.359 A492 | 2.29 A492 | 1.68 A492 |  |
| B8 | 0.122 A492 | 0.748 A492 | 0.32 A492 | 2.43 A492 | 1.55 A492 |  |
| B9 | 0.074 A492 | 0.505 A492 | 0.169 A492 | 2.1 A492 | 1.02 A492 |  |
| B10 | 0.108 A492 | 0.745 A492 | 0.276 A492 | 2.23 A492 | 1.46 A492 |  |
| B11 | 0.088 A492 | 0.536 A492 | 0.226 A492 | 2.15 A492 | 1.14 A492 |  |

Reference: US20090197330A1 (BIOMEDICS, published 2009)
